The results in this text go back to article doi:10.1101/2020.05.01.070730 (bioRxiv, 2020).

The data set concerns the target T1, MutS R842E (Pseudomonas aeruginosa, UniProt Q9HY08 1-855, R842E).
T1 sequence: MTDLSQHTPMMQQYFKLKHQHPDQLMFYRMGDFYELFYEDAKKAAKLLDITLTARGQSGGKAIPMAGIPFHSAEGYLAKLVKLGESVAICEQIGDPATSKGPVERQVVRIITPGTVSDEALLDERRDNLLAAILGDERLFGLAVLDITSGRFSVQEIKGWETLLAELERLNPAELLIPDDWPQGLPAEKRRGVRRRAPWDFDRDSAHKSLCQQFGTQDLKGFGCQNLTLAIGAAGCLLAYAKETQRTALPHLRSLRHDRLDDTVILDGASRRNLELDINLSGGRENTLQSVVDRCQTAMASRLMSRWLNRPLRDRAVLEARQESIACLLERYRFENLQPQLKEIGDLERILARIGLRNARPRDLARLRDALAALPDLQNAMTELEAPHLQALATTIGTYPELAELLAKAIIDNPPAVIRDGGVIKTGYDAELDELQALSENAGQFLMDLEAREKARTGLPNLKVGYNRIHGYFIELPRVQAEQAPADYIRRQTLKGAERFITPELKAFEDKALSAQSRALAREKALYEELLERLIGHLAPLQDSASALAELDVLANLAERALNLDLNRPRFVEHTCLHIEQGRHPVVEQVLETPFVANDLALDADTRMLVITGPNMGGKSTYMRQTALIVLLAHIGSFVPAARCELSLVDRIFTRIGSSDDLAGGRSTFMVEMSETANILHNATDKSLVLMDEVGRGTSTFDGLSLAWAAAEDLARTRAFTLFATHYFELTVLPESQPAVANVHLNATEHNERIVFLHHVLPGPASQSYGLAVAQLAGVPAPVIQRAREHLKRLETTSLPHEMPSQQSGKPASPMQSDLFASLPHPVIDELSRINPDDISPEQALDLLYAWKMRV
In words: native PAGE shift.

B1: GT-pDNA (GT 8 nt from 3'-OH) (dsDNA)
DNA 1: ATGTGAATCAGTATGGTTGCTATCTGC
DNA 2: ATTTCCTTCAGCAGATAGTAACCATACTGATTCACAT
Regarding B1, the binding result was “binds”.
